B1: CPEB3 Ribozyme (parent)
chain: UAACAGGGGGCCACAGCAGAAGCGUUCACGUCGCAGCCCCUGUCAGAUUCUGGUGAAUCUGCGAAUUCUGCUGUAUAUCUC

In the data set the parent is B1. Briefly: self-cleavage, relative activity (ratio to wild type); higher = more cleavage; in vitro, sequencing. The method, boiled down: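 Barcoded CPEB3 ribozyme mutants, produced by rounds of error-prone PCR, self-cleaved while being transcribed with T7 RNA polymerase for 5 hours at 37°C and during a subsequent 15 min DNase I step before EDTA was added. Sequencing of template-switched cDNA on Illumina gave cleaved and total reads, and DNA sequencing assigned barcodes to variants. Each variant's relative activity is its cleaved/total read fraction divided by the unmutated ribozyme's fraction, averaged across three batches. A variant needed a minimum of 5 reads.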
On to U43A G46A, for which the self-cleavage amounted to 0.44.
For A45G U76C the value was 0.79; for C40G U54C, 0.2; for A5U G30U, 0.26.
For A13G C37U the value was 0.53.
For the variant G36U U69C, the self-cleavage is 0.15.
For U48G U76A the value was 0.43; for U60A U74C, 1.04.
Next, A18U C59G: 0.15; U43C G70C: 0.1; U51C G52C: 1.
For A28G U66C the value was 0.26.
Consider U31C C34U, for which the self-cleavage stood at 0.24.
For C44G U78C the value was 0.44.
For the variant A21U U54A, the self-cleavage was 0.29.
Next, G16U U41C: 0.41; G10A G24A: 0.16; U1A U51A: 0.95.
As to A15U G33U, the self-cleavage was determined as 0.52.
With G42A U80C, the self-cleavage is 0.36.
For A15U C71U the value was 0.33; for A2G G6U, 0.68.
Next, U43C U60C: 0.26; A21C G53U: 0.15; C40A U58C: 0.1.
For A21G U48C the value was 0.3.
As to A75G C79U, the self-cleavage amounted to 1.18.
Next, U54C U76G: 0.98; G7C U41C: 0.2.
Next, U60A C81G: 0.93.
As to U26G A35U, the self-cleavage worked out at 0.13.
For G19U A56G the value was 0.5; for U25G G73A, 0.51.
Consider A13G A28U, for which the self-cleavage amounted to 0.54.
Next, U51C A64G: 0.81.
Next, G52A A64G: 1.03.
Take G30C C40U: the self-cleavage came out at 0.23.
For A47U U72C the value was 0.53.
Next, A18U C44G: 0.24.
Turning to C40A U72G, the self-cleavage was determined as 0.41.
For A18C U67C the value was 0.18; for G9A G73A, 0.47; for A18G U51G, 0.77.
With C14A A45G, the self-cleavage was found to be 1.15.
In the case of G52A U69A, the self-cleavage amounted to 0.84.
For the variant A3C A77U, the self-cleavage was found to be 1.03.
Next, C12G C17G: 0.27; U31G U54A: 0.62.
For A20U G22U the value was 0.1.
Next, G22U C71U: 0.08; U54C G55A: 0.62; U51A A64U: 0.46.
On to G7U A64G, for which the self-cleavage was found to be 0.14.
For C34G U72C the value was 0.22.
For A35U G55C the value was 0.47.
Next, G19A U67C: 0.17; C59A U80G: 0.33.
G46C: the self-cleavage worked out at 0.32.
For C34A U66C the value was 0.46.
As to G55U C79U, the self-cleavage worked out at 1.16.
Next, G22A U54C: 0.2; C14A U72C: 1.22.
Next, C4U U25C: 0.2; C12G A18U: 0.35; C32U A64G: 0.3.
For A13G G53U the value was 1.15.
For the variant C4G A77G, the self-cleavage stood at 1.19.
Regarding A28U G73U, the self-cleavage came to 1.37.
For A13U G55U the value was 0.83; for A35G A45U, 1.13.
Turning to U25A U48C, the self-cleavage stood at 0.3.
For A20C A77G the value was 0.11.
Next, A35C G61A: 0.41; U54C C81G: 1.3; C12A U54C: 1.12.
Take A5U C68U: the self-cleavage came out at 0.99.
Consider A2G C29A, for which the self-cleavage is 0.13.
Next, C4A G8A: 0.47; C38G U43A: 0.14; A18U U58A: 0.19.
For U51C U58C the value was 0.37; for G16U U49C, 0.1.
For G19U G42A the value was 0.18; for U41A G52C, 0.67.
For the variant C32G C40U, the self-cleavage worked out at 0.22.
Next, C12U U26C: 0.84.
Take U26C U76G: the self-cleavage came to 0.55.
On to C32U U54C, for which the self-cleavage came to 0.33.
For G6C A65G the value was 0.46; for A65G U67C, 0.32; for A20G A75U, 0.71.
Next, A15G A35G: 0.68; C34U G61U: 0.19; C34A U67C: 0.29.
For U26C A57G the value was 0.36.
Turning to A65U U76C, the self-cleavage is 0.24.
Next, A65U U76A: 0.19; U43C G46U: 0.16.
For G22U U72A the value was 0.15; for G36C C38A, 0.16; for U54C G73U, 1.22.
As to C11G A56U, the self-cleavage turned out to be 0.28.
Regarding A21G U25C, the self-cleavage amounted to 0.29.
For G7U G24A the value was 0.22; for U25A G30A, 0.13.
As to A5U U60A, the self-cleavage was found to be 0.76.
As to A20G A28G, the self-cleavage came to 0.44.
For C11A U31A, the self-cleavage worked out at 0.3.
U26A C38A: the self-cleavage is 0.27.
Next, A13G C38A: 0.13.
Next, G30A U80A: 0.22; C37A A65U: 0.36.
Next, G22A U80C: 0.5.
With G63U A64U, the self-cleavage stood at 0.43.
For G22U A28U the value was 0.17.
Next, C40U U60G: 0; C14G: 1.08.
Turning to C34G C59A, the self-cleavage came to 0.18.
Next, U26C G73U: 1; U31G U51C: 0.52.
For A35U A47G the value was 0.48; for U26C C62G, 0.17.
For the variant C23A U48C, the self-cleavage was determined as 0.16.
For A65G A75G the value was 0.4; for U66G C68U, 0.38; for C29A U67C, 0.11.
With C38A U80A, the self-cleavage was found to be 0.11.
Next, G30U U76A: 0.5; A21G G30C: 0.15.
Next, A18G G33U: 0.19; A28U U60G: 0.16.
For the variant U69C U74G, the self-cleavage turned out to be 0.88.
For A3U A57G the value was 1.04; for U58A C68U, 0.23.
Next, G24A C27U: 0.3; C37U C40A: 0.21; A15G U43A: 1.05.
Next, G46A U78C: 0.38.
On to U48A U74A, for which the self-cleavage turned out to be 0.98.
For C4U U67A the value was 0.76.
For G46C U80A the value was 0.2; for A15U A21C, 0.36; for A21G U69A, 0.27.
Next, U72C C79G: 1.05; C23U A56U: 0.15.
On to U26A U74A, for which the self-cleavage is 1.31.
Next, U25C G52C: 0.58; C71U U78A: 0.65; C17A U80C: 0.24.
Regarding G22A A64G, the self-cleavage stood at 0.24.
Next, U41A C62U: 0.16; A56G G70U: 0.25.
For C12A A57G the value was 1.06; for G52C U80A, 1.22.
For C71G U72C the value was 0.44; for G30U U41G, 0.13; for U49C C71G, 0.19.
As to A20G U41C, the self-cleavage worked out at 0.89.
For A20U U49A the value was 0.2; for A64G C81A, 1.02.
Next, U69C U76G: 0.79; U69C U76A: 0.75.
For A3U U31G the value was 1.01; for C39U A56G, 0.48; for U49A U67A, 0.57.
Take A18G G19U: the self-cleavage worked out at 0.32.
For C23A G36U the value was 0.25.

For the origin of these results see the RNAGym collection of RNA variant scans (doi:10.1093/nar/gkz1192).
